Results published in patent publication US20200270351A1 (Janssen / Centocor, published 2020).
Each block holds one binder with its values, some of them ahead of it.

Target: T1, mutant L858R/T790M EGFR on NCI-H1975 cells (human, UniProt P00533 25-1210)
T1 construct: whole, on cells; these cells carry both this EGFR and wild type c-Met; also called H1975 target cells; HER1
Assay: confocal imaging of AF647-labeled antibody in co-culture of M1 or M2c macrophages and H1975 target cells (data not shown)
Procedure: Differentiated macrophages were harvested and plated onto CellCarrier96 ultra plates at 1,00,000 cells/well (Perkin-Elmer; Cat#6055302) overnight. Assays were performed using both adhered and non-adhered target cells. For assays with adhered target cells, the H1975 NucLight Red cells were plated at 20,000/well, adhered for 4 hours, then treated with labeled Ab cocktail for 1 hour at 4° C.

- binding result: binds
B1: JNJ-372.IgG2sigma (Fc effector silent JNJ-372) (bispecific antibody, V domains shown)
VH 1: QVQLVESGGGVVQPGRSLRLSCAASGFTFSTYGMHWVRQAPGKGLEWVAVIWDDGSYKYYGDSVKGRFTISRDNSKNTLYLQMNSLRAEDTAVYYCARDGITMVRGVMKDYFDYWGQGTLVTVSS
VL 1: AIQLTQSPSSLSASVGDRVTITCRASQDISSALVWYQQKPGKAPKLLIYDASSLESGVPSRFSGSESGTDFTLTISSLQPEDFATYYCQQFNSYPLTFGGGTKVEIK
VH 2: QVQLVQSGAEVKKPGASVKVSCETSGYTFTSYGISWVRQAPGHGLEWMGWISAYNGYTNYAQKLQGRVTMTTDTSTSTAYMELRSLRSDDTAVYYCARDLRGTNYFDYWGQGTLVTVSS
VL 2: DIQMTQSPSSVSASVGDRVTITCRASQGISNWLAWFQHKPGKAPKLLIYAASSLLSGVPSRFSGSGSGTDFTLTISSLQPEDFATYYCQQANSFPITFGQGTRLEIK
notes: Used AF488- or AF647-labeled in the assays; also called IgG2σ; EGFR/cMet IgG2G Ab

- binding result: binds
B2: JNJ-61186372 (JNJ-372), IgG1 anti-EGFR/c-Met bispecific antibody (bispecific antibody)
heavy 1: not shown
light 1: not shown
heavy 2: not shown
light 2: DIQMTQSPSSVSASVGDRVTITCRASQGISNWLAWFQHKPGKAPKLLIYAASSLLSGVPSRFSGSGSGTDFTLTISSLQPEDFATYYCQQANSFPITFGQGTRLEIKRTVAAPSVFIFPPSDEQLKSGTASVVCLLNNFYPREAKVQWKVDNALQSGNSQESVTEQDSKDSTYSLSSTLTLSKADYEKHKVYACEVTHQGLSSPVTKSFNRGEC
notes: Produced in a cell line incorporating low levels (<9%) of fucose
